The assay deals with biotinylated AP-neuroligin-1 on rat hippocampal neurons (mouse neuroligin-1 with acceptor peptide at the N-terminus, biotinylated with biotin ligase) (mouse) (UniProt Q99K10). The assay is described as follows: cell-based or functional assay.

We go through two substances from patent publication US20070099248A1.

Chain of biotinylated AP-neuroligin-1 on rat hippocampal neurons (mouse neuroligin-1 with acceptor peptide at the N-terminus, biotinylated with biotin ligase) (mouse) (Q99K10 46-843, form in doubt): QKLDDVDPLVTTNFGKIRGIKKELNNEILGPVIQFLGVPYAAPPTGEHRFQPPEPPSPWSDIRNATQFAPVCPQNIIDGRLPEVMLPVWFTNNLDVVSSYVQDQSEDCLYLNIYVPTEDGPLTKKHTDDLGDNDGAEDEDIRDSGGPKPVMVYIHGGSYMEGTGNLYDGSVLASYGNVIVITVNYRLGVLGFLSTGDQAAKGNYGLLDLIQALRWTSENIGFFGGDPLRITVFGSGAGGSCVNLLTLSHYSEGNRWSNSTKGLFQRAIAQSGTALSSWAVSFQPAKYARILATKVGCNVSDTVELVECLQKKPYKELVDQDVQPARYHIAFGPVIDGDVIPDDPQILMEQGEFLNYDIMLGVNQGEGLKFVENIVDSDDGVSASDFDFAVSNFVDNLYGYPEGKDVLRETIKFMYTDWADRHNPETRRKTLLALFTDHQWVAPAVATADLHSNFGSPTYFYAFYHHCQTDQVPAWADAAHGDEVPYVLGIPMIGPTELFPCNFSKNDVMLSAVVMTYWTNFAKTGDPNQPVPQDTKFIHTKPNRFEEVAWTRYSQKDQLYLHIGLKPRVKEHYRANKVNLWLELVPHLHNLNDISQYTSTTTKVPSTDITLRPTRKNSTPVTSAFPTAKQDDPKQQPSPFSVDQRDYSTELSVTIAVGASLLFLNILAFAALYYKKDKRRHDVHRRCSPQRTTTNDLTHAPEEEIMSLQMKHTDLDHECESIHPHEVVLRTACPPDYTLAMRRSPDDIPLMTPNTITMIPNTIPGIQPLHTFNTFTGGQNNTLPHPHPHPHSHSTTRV

The substance “monovalent streptavidin A1D3 (one Alive subunit with His6 tag, three Dead subunits), Alexa Fluor 568-conjugated (designed binder)” had a clusters/µm of dendrite after two hour incubation of 0.087 clusters/µm.

Substance “Alexa Fluor 568-conjugated wild-type streptavidin (Molecular Probes) (from UniProt P22629 37-163)” came in with a clusters/µm of dendrite after two hour incubation of 0.266 clusters/µm.
